± gives the uncertainty stated by the source.
Assay: abundance fitness (aPCA) (normalised: wild type 0, dead -1); higher = more abundant; growth selection in yeast, the domain comes from the species named
Conditions: Homo sapiens

| Substance | abundance fitness |
| --- | --- |
| Lipoamide acyltransferase component of branched-chain alpha-keto acid dehydrogenase complex, mitochondrial I186C, P11182 | -0.239 ± 0.074 |
| Lipoamide acyltransferase component of branched-chain alpha-keto acid dehydrogenase complex, mitochondrial I186D, P11182 | -0.81 ± 0.077 |
| Lipoamide acyltransferase component of branched-chain alpha-keto acid dehydrogenase complex, mitochondrial I186E, P11182 | -0.543 ± 0.065 |
| Lipoamide acyltransferase component of branched-chain alpha-keto acid dehydrogenase complex, mitochondrial I186F, P11182 | -0.9 ± 0.18 |
| Lipoamide acyltransferase component of branched-chain alpha-keto acid dehydrogenase complex, mitochondrial I186G, P11182 | -0.748 ± 0.042 |
| Lipoamide acyltransferase component of branched-chain alpha-keto acid dehydrogenase complex, mitochondrial I186H, P11182 | -0.679 ± 0.091 |
| Lipoamide acyltransferase component of branched-chain alpha-keto acid dehydrogenase complex, mitochondrial I186K, P11182 | -0.533 ± 0.4 |
| Lipoamide acyltransferase component of branched-chain alpha-keto acid dehydrogenase complex, mitochondrial I186L, P11182 | -0.32 ± 0.057 |
| Lipoamide acyltransferase component of branched-chain alpha-keto acid dehydrogenase complex, mitochondrial I186M, P11182 | -0.419 ± 0.069 |
| Lipoamide acyltransferase component of branched-chain alpha-keto acid dehydrogenase complex, mitochondrial I186N, P11182 | -0.735 ± 0.097 |
| Lipoamide acyltransferase component of branched-chain alpha-keto acid dehydrogenase complex, mitochondrial I186P, P11182 | -0.918 ± 0.11 |
| Lipoamide acyltransferase component of branched-chain alpha-keto acid dehydrogenase complex, mitochondrial I186R, P11182 | -0.722 ± 0.049 |
| Lipoamide acyltransferase component of branched-chain alpha-keto acid dehydrogenase complex, mitochondrial I186S, P11182 | -0.594 ± 0.064 |
| Lipoamide acyltransferase component of branched-chain alpha-keto acid dehydrogenase complex, mitochondrial I186T, P11182 | -0.484 ± 0.091 |
| Lipoamide acyltransferase component of branched-chain alpha-keto acid dehydrogenase complex, mitochondrial I186V, P11182 | -0.046 ± 0.046 |
| Lipoamide acyltransferase component of branched-chain alpha-keto acid dehydrogenase complex, mitochondrial I186W, P11182 | -1.05 ± 0.094 |
| Lipoamide acyltransferase component of branched-chain alpha-keto acid dehydrogenase complex, mitochondrial I200A, P11182 | -0.66 ± 0.048 |
| Lipoamide acyltransferase component of branched-chain alpha-keto acid dehydrogenase complex, mitochondrial I200C, P11182 | -0.589 ± 0.062 |
| Lipoamide acyltransferase component of branched-chain alpha-keto acid dehydrogenase complex, mitochondrial I200D, P11182 | -0.567 ± 0.21 |
| Lipoamide acyltransferase component of branched-chain alpha-keto acid dehydrogenase complex, mitochondrial I200E, P11182 | -0.558 ± 0.072 |
| Lipoamide acyltransferase component of branched-chain alpha-keto acid dehydrogenase complex, mitochondrial I200F, P11182 | -0.76 ± 0.097 |
| Lipoamide acyltransferase component of branched-chain alpha-keto acid dehydrogenase complex, mitochondrial I200G, P11182 | -0.667 ± 0.045 |
| Lipoamide acyltransferase component of branched-chain alpha-keto acid dehydrogenase complex, mitochondrial I200H, P11182 | -0.678 ± 0.089 |
| Lipoamide acyltransferase component of branched-chain alpha-keto acid dehydrogenase complex, mitochondrial I200L, P11182 | -0.334 ± 0.043 |

| Substance | abundance fitness |
| --- | --- |
| Lipoamide acyltransferase component of branched-chain alpha-keto acid dehydrogenase complex, mitochondrial I200M, P11182 | -0.563 ± 0.061 |
| Lipoamide acyltransferase component of branched-chain alpha-keto acid dehydrogenase complex, mitochondrial I200N, P11182 | -0.711 ± 0.28 |
| Lipoamide acyltransferase component of branched-chain alpha-keto acid dehydrogenase complex, mitochondrial I200P, P11182 | -0.483 ± 0.05 |
| Lipoamide acyltransferase component of branched-chain alpha-keto acid dehydrogenase complex, mitochondrial I200Q, P11182 | -0.643 ± 0.07 |
| Lipoamide acyltransferase component of branched-chain alpha-keto acid dehydrogenase complex, mitochondrial I200R, P11182 | -0.764 ± 0.045 |
| Lipoamide acyltransferase component of branched-chain alpha-keto acid dehydrogenase complex, mitochondrial I200S, P11182 | -0.76 ± 0.042 |
| Lipoamide acyltransferase component of branched-chain alpha-keto acid dehydrogenase complex, mitochondrial I200T, P11182 | -0.625 ± 0.06 |
| Lipoamide acyltransferase component of branched-chain alpha-keto acid dehydrogenase complex, mitochondrial I200V, P11182 | -0.021 ± 0.039 |
| Lipoamide acyltransferase component of branched-chain alpha-keto acid dehydrogenase complex, mitochondrial I200W, P11182 | -0.852 ± 0.063 |
| Lipoamide acyltransferase component of branched-chain alpha-keto acid dehydrogenase complex, mitochondrial I205A, P11182 | -0.356 ± 0.041 |
| Lipoamide acyltransferase component of branched-chain alpha-keto acid dehydrogenase complex, mitochondrial I205C, P11182 | -0.16 ± 0.052 |
| Lipoamide acyltransferase component of branched-chain alpha-keto acid dehydrogenase complex, mitochondrial I205E, P11182 | -0.289 ± 0.047 |
| Lipoamide acyltransferase component of branched-chain alpha-keto acid dehydrogenase complex, mitochondrial I205G, P11182 | -0.359 ± 0.037 |
| Lipoamide acyltransferase component of branched-chain alpha-keto acid dehydrogenase complex, mitochondrial I205H, P11182 | -0.408 ± 0.064 |
| Lipoamide acyltransferase component of branched-chain alpha-keto acid dehydrogenase complex, mitochondrial I205K, P11182 | -0.302 ± 0.052 |
| Lipoamide acyltransferase component of branched-chain alpha-keto acid dehydrogenase complex, mitochondrial I205L, P11182 | -0.086 ± 0.037 |
| Lipoamide acyltransferase component of branched-chain alpha-keto acid dehydrogenase complex, mitochondrial I205M, P11182 | -0.28 ± 0.054 |
| Lipoamide acyltransferase component of branched-chain alpha-keto acid dehydrogenase complex, mitochondrial I205N, P11182 | -0.551 ± 0.11 |
| Lipoamide acyltransferase component of branched-chain alpha-keto acid dehydrogenase complex, mitochondrial I205Q, P11182 | -0.302 ± 0.048 |
| Lipoamide acyltransferase component of branched-chain alpha-keto acid dehydrogenase complex, mitochondrial I205R, P11182 | -0.343 ± 0.035 |
| Lipoamide acyltransferase component of branched-chain alpha-keto acid dehydrogenase complex, mitochondrial I205S, P11182 | -0.332 ± 0.05 |
| Lipoamide acyltransferase component of branched-chain alpha-keto acid dehydrogenase complex, mitochondrial I205T, P11182 | -0.337 ± 0.057 |
| Lipoamide acyltransferase component of branched-chain alpha-keto acid dehydrogenase complex, mitochondrial I205V, P11182 | 0.028 ± 0.042 |
| Lipoamide acyltransferase component of branched-chain alpha-keto acid dehydrogenase complex, mitochondrial I205W, P11182 | -0.629 ± 0.056 |

— the Human Domainome abundance scans (Beltran et al. 2025)
